Target: BoNT/A toxoid (formaldehyde-inactivated botulinum neurotoxin type A, 150 kDa) (UniProt P0DPI1 2-1296)
Experiment: […]

Sequence of BoNT/A toxoid (formaldehyde-inactivated botulinum neurotoxin type A, 150 kDa) (P0DPI1 2-1296): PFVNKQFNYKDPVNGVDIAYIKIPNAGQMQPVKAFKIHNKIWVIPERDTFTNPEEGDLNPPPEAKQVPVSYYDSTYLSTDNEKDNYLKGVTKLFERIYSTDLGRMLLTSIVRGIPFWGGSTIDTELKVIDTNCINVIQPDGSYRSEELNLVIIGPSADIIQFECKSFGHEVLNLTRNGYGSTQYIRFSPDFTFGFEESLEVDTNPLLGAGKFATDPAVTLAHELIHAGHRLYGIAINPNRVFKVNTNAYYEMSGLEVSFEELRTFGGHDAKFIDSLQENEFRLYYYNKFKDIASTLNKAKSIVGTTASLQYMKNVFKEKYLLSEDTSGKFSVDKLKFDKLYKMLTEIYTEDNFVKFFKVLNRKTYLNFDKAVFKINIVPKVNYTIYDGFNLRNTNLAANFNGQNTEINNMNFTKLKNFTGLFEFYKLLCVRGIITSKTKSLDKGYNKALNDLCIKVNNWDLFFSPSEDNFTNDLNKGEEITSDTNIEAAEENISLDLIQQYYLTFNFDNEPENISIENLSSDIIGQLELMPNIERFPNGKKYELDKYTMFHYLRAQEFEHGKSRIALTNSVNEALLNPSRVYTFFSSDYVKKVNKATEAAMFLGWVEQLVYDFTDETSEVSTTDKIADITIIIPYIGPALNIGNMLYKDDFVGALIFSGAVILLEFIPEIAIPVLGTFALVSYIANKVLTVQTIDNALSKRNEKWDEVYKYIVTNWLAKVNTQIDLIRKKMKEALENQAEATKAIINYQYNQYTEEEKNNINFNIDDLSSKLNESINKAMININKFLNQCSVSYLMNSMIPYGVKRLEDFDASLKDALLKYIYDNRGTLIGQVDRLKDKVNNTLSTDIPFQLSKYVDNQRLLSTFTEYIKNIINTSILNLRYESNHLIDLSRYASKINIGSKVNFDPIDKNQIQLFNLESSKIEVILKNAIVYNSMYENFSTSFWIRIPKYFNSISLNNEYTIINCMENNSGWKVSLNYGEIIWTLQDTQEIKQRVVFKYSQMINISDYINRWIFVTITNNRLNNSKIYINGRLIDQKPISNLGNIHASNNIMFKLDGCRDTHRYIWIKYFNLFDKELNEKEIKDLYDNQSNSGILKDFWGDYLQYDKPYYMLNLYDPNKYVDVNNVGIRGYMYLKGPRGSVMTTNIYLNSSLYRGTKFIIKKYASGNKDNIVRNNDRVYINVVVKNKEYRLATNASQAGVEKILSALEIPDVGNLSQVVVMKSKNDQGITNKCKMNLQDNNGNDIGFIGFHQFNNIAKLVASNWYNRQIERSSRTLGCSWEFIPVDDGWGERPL

B1: BoNT/A aptamer (76 nt) (ssDNA)
DNA: ATACCAGCTTATTCAATTGACATGACTGGGATTTTTGGCGAAATCGAAGGAAGCGGAGAGATAGTAAGTGCAATCT
binding signal: ~3.8 signal-to-background ratio

Source: article PMC3210382
